Laboratory results: patent US20160038588A1 (Amgen, published 2016)
Where no end group is shown, it is not given here.

What was measured:
[1] = molecular target: T1, recombinant mature myostatin (human, produced in E. coli) (human, UniProt O14793 267-375); assay: cell-based or functional assay
T1 sequence (looked up): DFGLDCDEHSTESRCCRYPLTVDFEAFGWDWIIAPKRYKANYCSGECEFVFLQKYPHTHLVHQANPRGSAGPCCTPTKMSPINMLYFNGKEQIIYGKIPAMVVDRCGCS

[2] = molecular target: T1, recombinant mature myostatin (human, …); assay: cell-based or functional assay; remark: listed apart in the source

| Binder | IC50, C2C12 pMARE-luc assay [1] [nM] | IC50 (read off the curve) [2] [µM] |
| --- | --- | --- |
| recombinant human activin receptor IIB/Fc chimera (R&D Systems) (Fc fusion, UniProt Q13705 19-134, looked up, not shown: a dimerising Fc or GST) SGRGEAETRECIYYNANWELERTNQSGLERCEGEQDKRLHCYASWRNSSGTIELVKKGCWLDDFNCYDRQECVATEENPQVYFCCCEGNFCNERFTHLPEAGGPEVTYEPPPTAPT | ~83 |  |
| QGHCTRWPWMCPPY (also: cysteine-constrained, bridge type not given here) [TN8-19 peptide] |  | ~20 |
